Measurements from the supplement of paper PMC10724198.
± gives the standard deviation of the averaged measurements.

System: Saccharomyces cerevisiae
Test: protein stability index of tFT-peptide fusion (C-terminal peptide) (PSI (0-1 scale)); higher = more stable (slower turnover)
Conditions: genetic background: wild type; temperature: 30 C
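Also: PSI is a weighted mean of sequencing reads over stability bins, variants kept only with over 10 reads, mCherry proximal and sfGFP distal, peptide attached via GGGS linker.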

Sequence | protein stability index
RNTKGRIKKKKE | 0.728 ± 0.039
RNTRAVREHRNV | 0.726 ± 0.0092
RNTSQNRIDEKL | 0.657 ± 0.014
RNVALPSRKAQY | 0.715 ± 0.016
RNYQKAKENMKL | 0.585 ± 0.14
RPAPASAFPHSP | 0.69 ± 0.045
RPASPRSPIVSR | 0.726 ± 0.024
RPAVPSPRPPPP | 0.674 ± 0.029
RPELGLCAGDTN | 0.673 ± 0.061
RPFAPLPPPPSM | 0.689 ± 0.025
RPFATVLRTRAV | 0.71 ± 0.0077
RPGGVRVVSIQL | 0.672 ± 0.06
RPGYDRNRTGMI | 0.738 ± 0.073
RPHAFHCDPSSP | 0.698 ± 0.11
RPKTLGNAREEG | 0.708 ± 0.039
RPKWLCAIATAD | 0.687 ± 0.023
RPLPGAFLLFRS | 0.695 ± 0.021
RPLRRQREVCGA | 0.597 ± 0.019
RPLRVLSYVPIH | 0.644 ± 0.03
RPLWVDGPHPSR | 0.666 ± 0.1
RPMKGLSMGSCA | 0.66 ± 0.011
RPPFPLRTSPLV | 0.694 ± 0.037
RPPLSPLLYPPP | 0.7115 ± 0.0022

Sequence | protein stability index
RPPPALWPPPSP | 0.694 ± 0.027
RPPPSPPPIPSP | 0.666 ± 0.033
RPPRPPTHSPPP | 0.68 ± 0.01
RPRPKRCGPRSV | 0.672 ± 0.052
RPRQAAAQGGAR | 0.694 ± 0.036
RPRVCFPHIAGT | 0.777 ± 0.11
RPSARSLVSPSP | 0.716 ± 0.025
RPTGHAPSRALT | 0.659 ± 0.062
RPVPVPTALIPS | 0.61 ± 0.013
RPVSQRRRKHIG | 0.645 ± 0.064
RPWAKGTGGRCY | 0.723 ± 0.21
RPYGKQTERYVK | 0.672 ± 0.029
RPYLSPPPPTSP | 0.687 ± 0.093
RQFLSLLPCSLP | 0.771 ± 0.094
RQGMGPKLVKHQ | 0.633 ± 0.1
RQHPPLPSFPSP | 0.759 ± 0.06
RQKAQESNTQPP | 0.73 ± 0.044
RQLVNKKIKEKK | 0.7258 ± 0.0051
RQPPPRSPPSYL | 0.75 ± 0.063
RQQRKIYTDKQD | 0.754 ± 0.0057
RQQSIIDNQIGQ | 0.6802 ± 0.0061
RRAKMHSRRSLA | 0.648 ± 0.053
RRAKMSWCCKKY | 0.69 ± 0.0098

Sequence | protein stability index
RRCRLNPPIDST | 0.683 ± 0.088
RREVKKNGNKRN | 0.713 ± 0.073
RRFKIDKNKIKL | 0.683 ± 0.018
RRGKIETKESKK | 0.712 ± 0.044
RRGTRGGGGRER | 0.638 ± 0.019
RRGWVRWRVGAA | 0.667 ± 0.074
RRLFGLGWDVKI | 0.7177 ± 0.0034
RRMVRLDACASV | 0.659 ± 0.041
RRNISRQNKKKR | 0.76 ± 0.11
RRPPPPRGPSPP | 0.713 ± 0.02
RRPPRVYLQLSI | 0.67 ± 0.066
RRQPPRDQGTPC | 0.795 ± 0.13
RRREGTVPWYIS | 0.605 ± 0.057
RRRKPAEHTPPW | 0.755 ± 0.1
RRRNSTFTNLDT | 0.6783 ± 0.0045
RRRSLLLTYSYV | 0.541 ± 0.055
RRSLDQSIQAKC | 0.643 ± 0.055
RRTAVEEWGVGG | 0.672 ± 0.12
RRTEGLATAGRV | 0.666 ± 0.072
RRVGSGGLEGIG | 0.528 ± 0.019
RRVPVVSRSGGG | 0.697 ± 0.043
RRWGLIGVMSYL | 0.732 ± 0.089
RSAMRLFEPFSP | 0.745 ± 0.19

Sequence | protein stability index
RSEGEGGKGKRE | 0.687 ± 0.019
RSFVSRGSILWF | 0.723 ± 0.13
RSGAAREVSGGA | 0.7546 ± 0.0052
RSGRCWSFPFSV | 0.703 ± 0.026
RSHRGSPCPLVP | 0.69 ± 0.025
RSISGVNMENVQ | 0.639 ± 0.018
RSLDEPCGFFRP | 0.637 ± 0.023
RSLSLAPSFPLP | 0.697 ± 0.0086
RSPINSRRGGVV | 0.689 ± 0.0097
RSPPAPRFLPAP | 0.652 ± 0.049
RSPPPLPSPPSH | 0.709 ± 0.035
RSPPPPPGPRFP | 0.698 ± 0.019
RSPPTQGQTPTT | 0.696 ± 0.028
RSRCYSNIRIFI | 0.589 ± 0.048
RSRSELRVFCTS | 0.556 ± 0.011
RSSARPQNRPLP | 0.733 ± 0.035
RSSFCILCCLFS | 0.557 ± 0.024
RSSIGNLCCRLL | 0.6884 ± 0.0034
RSSPPSPPLLSP | 0.611 ± 0.023
RSSTYGIMYSYR | 0.715 ± 0.035
RSYRLRTSRADI | 0.683 ± 0.1
RTHTAALCRTHS | 0.7047 ± 0.0057
RTLAGLLVDSHV | 0.679 ± 0.041

Sequence | protein stability index
RTLHKKRLLAHR | 0.693 ± 0.041
RTLSSFSPGYLF | 0.8548 ± 0.0033
RTLYEAAPLFVG | 0.729 ± 0.051
RTRLPYVPAPAP | 0.686 ± 0.0092
RTRSVPWEPRYF | 0.687 ± 0.03
RTSCEQYERGLM | 0.673 ± 0.012
RTSPRSHVSRSL | 0.79 ± 0.056
RTVPCCVAENKF | 0.672 ± 0.012
RVCFVTNLVDVT | 0.721 ± 0.096
RVDALVHLPLRL | 0.629 ± 0.03
RVETYQKMTSRL | 0.757 ± 0.0092
RVFDPSRSTVVE | 0.774 ± 0.018
RVGHGHRSPTRV | 0.677 ± 0.14
RVGRGGGRETRG | 0.699 ± 0.031
RVGRNLRVGGES | 0.69 ± 0.008
RVGTHDRTRAHG | 0.601 ± 0.02
RVGVRGVVVSMG | 0.612 ± 0.075
RVLGGGVLGVLV | 0.711 ± 0.0099
RVLLYWRGSGVL | 0.577 ± 0.071
RVLSCAFSTLWA | 0.711 ± 0.12
RVMGRHIGRPRE | 0.702 ± 0.015
RVPDNYLKWSYI | 0.719 ± 0.051
RVRFRVYKGGAL | 0.661 ± 0.041

Sequence | protein stability index
RVRGDRLGGRGT | 0.706 ± 0.043
RVRGGGPRESGQ | 0.728 ± 0.024
RVSAPPSFHGSF | 0.722 ± 0.014
RVSGYTHPLLSC | 0.679 ± 0.079
RVSLREVKAEKN | 0.682 ± 0.057
RVTVWHELTVDC | 0.569 ± 0.0083
RVVGGGGEAWRE | 0.73 ± 0.033
RVWAGGGGGDGC | 0.691 ± 0.021
RVYTSAWAPDWR | 0.62 ± 0.056
RWCRLGHRWRVV | 0.563 ± 0.054
RWFTFPVPVPFC | 0.642 ± 0.036
RWGGGKWWRGAE | 0.659 ± 0.018
RWSVLSRSCSSY | 0.729 ± 0.034
RWTRFISLTGTG | 0.637 ± 0.064
RWVEGVWGVWCG | 0.757 ± 0.042
RYCESKVFKERE | 0.742 ± 0.049
RYFPNRGSGLTY | 0.786 ± 0.037
RYIKSRMLIIER | 0.56 ± 0.049
RYLVLPDLCPIS | 0.736 ± 0.1
RYPPVQPRRAQR | 0.593 ± 0.031
RYRSRHHSTYVL | 0.635 ± 0.26
RYSRVALRPRPP | 0.579 ± 0.052
RYTKYKSYPYDI | 0.6897 ± 0.0023

Sequence | protein stability index
SACPPIPPPPPP | 0.635 ± 0.026
SAGGCSVMAGNG | 0.709 ± 0.11
SAGVIVPGRAGR | 0.761 ± 0.082
SAHPFKSCPIGR | 0.682 ± 0.0094
SAKGGVLLIGLF | 0.603 ± 0.2
SALRGTDMREEV | 0.632 ± 0.023
SAPFGFLFFARL | 0.815 ± 0.083
SAPLRHTSSSPS | 0.697 ± 0.043
SAPPSPPLPPPC | 0.677 ± 0.067
SAPRDLYIHFSR | 0.7371 ± 0.0014
SARGRTRTADPS | 0.677 ± 0.048
SARRFPPPPSSS | 0.702 ± 0.046
SASSESTFLRAR | 0.641 ± 0.012
SATALTANHPKM | 0.677 ± 0.0096
SCITFGGWLGGM | 0.709 ± 0.13
SCLCIHEIFLRL | 0.672 ± 0.016
SCLWRGHDTVWL | 0.662 ± 0.098
SCSFLISLLLLP | 0.525 ± 0.023
SCTGGLVSVRGV | 0.666 ± 0.023
SCVNGYSVCMCW | 0.524 ± 0.046
SCWVLPFHYGSG | 0.714 ± 0.026
SDDTIQNQICPG | 0.66 ± 0.059
